Data on six molecules can be found in US20230295308A1, “ANTAGONISTIC BIPARATOPIC ANTIBODIES THAT SPECIFICALLY BIND FIBROBLAST GROWTH FACTOR RECEPTOR 2 AND METHODS OF USING SAME” (The Broad Institute, Inc., priority 2020, published 2023).

Entries after “also recorded” stand apart in the source; their conditions may differ.

The target of test [1] is FGFR2b alpha IIIb antigen (UniProt P21802). Description: SPR (Biacore), KD matrix by the two arms; unit M from FIG. 17B and paragraph 180. (In SPR one partner is held on a chip, and binding of the other changes the refractive index at the surface.)
Test [2] shares this target. The test can be described thus: SPR (Biacore), antibody immobilized, FGFR2b alpha IIIb in flow.
For test [3], the system named is NIH3T3 cells overexpressing FGFR2-BICC1 fusion. Description: NIH3T3 FGFR2-BICC1 cell confluency, Incucyte (FIGS. 19A-19E). The class given is cell-based. The note with it: 60 hours, 0.013-1 μM. As to the method:
FIGS. 19A-19E present graphs showing the ability of biparatopic antibodies to impact FGFR2-fusion driven cell growth in NIH3T3 cells molecularly engineered to overexpress FGFR2-BICC1 fusion. […] The nomenclature of the biparatopic antibodies is based on the designations and descriptions of the parental antibodies presented in FIG. 7B.
The impact of biparatopic antibodies on FGFR2-fusion driven cell growth was assessed in a cell-based assay using biparatopic antibodies that bind to the ECD of FGFR2 and generated as described supra (Example 4). As described herein, the biparatopic antibodies were added to cultures of cells (e.g., NIH3T3 cells or BaF3 cells) molecularly engineered to overexpress FGFR2 fusion.
For assays using NIH3T3 cells, (FIGS. 19A-19E), NIH3T3 cells overexpressing a FGFR2-BICC1 fusion construct were plated in 384 black well plates at a concentration of 1000 cells/well overnight. 6 parental antibodies and 13 biparatopic antibodies were added to each well in duplicates at various concentrations ranging from 1 μM to 0.013 μM (1 μM, 0.833 μM, 0.600 μM, 0.450 μM, 0.316 μM, 0.233 μM, 0.166 μM, 0.125 μM, 0.091 μM, 0.066 μM, 0.048 μM, 0.035 μM, 0.025 μM, 0.018 μM, and 0.013 μM). The cell confluency was measured using Incucyte at 60 hours post treatment, and the IC50 curves were generated using non-linear fit in PRISM 9 software.

Test [4] concerns the target FGFR2 on SNU-16 gastric cancer cell line with FGFR2 amplification (UniProt P21802). Description: FACS on SNU-16 cells, % No. of cells with FITC+ [cont.].
For test [5], the target named is FGFR2b alpha IIIb antigen (UniProt P21802). The test can be described thus: SPR (Biacore), antibody on chip, FGFR2b alpha IIIb antigen.
The target in test [6] is FGFR2 on SNU-16 gastric cancer cell line with FGFR2 amplification (UniProt P21802). The test can be described thus: FACS on SNU-16 cells, % cells with FITC+ against log antibody concentration; Kd printed in the legend box [cont.].
Test [7] shares this target. Description: row 'Kd (nM) (FACS)'; FACS on SNU-16 cells.
The target is the same in test [8]. Description: FACS on SNU-16 cells, % cells with FITC+ [cont.].
Test [9] deals with FGFR2-PHDGH fusion expressing BaF3 cells. The test can be described thus: growth of BaF3 cells expressing FGFR2-PHGDH fusion, absence of FGF ligands (FIG. 9). It is filed as cell-based. The following applies: BaF3 FGFR2-PHGDH fusion. As for the experimental part: Antibodies A-F were tested to determine whether they could inhibit the ligand-induced growth of BaF3 cells expressing FGFR2IIIb. Antibodies C, D, and E, which bind FGFR2 Ig-2 and Ig-3, were effective in blocking ligand-induced growth of BaF3 cells expressing wild-type FGFR2IIIb (FIG. 8). The effects of antibodies A-F were then tested on BaF3 cells expressing FGFR2-PHDGH fusions. […] Antibody F inhibited the FGFR2-PHDGH activating fusion in BaF3 cells (FIG. 9).

Another test addresses T1, 15AA-Nterm FGFR2.
T1 peptide: RPSFSLVEDTTLEPE
The test can be described thus: row 'Kd (nM) (patent)', value quoted from the source patent; method: Indirect ELISA-15AA-Nterm FGFR2.

The target in the next test is FGFR2b alpha IIIb (Homo sapiens, UniProt P21802). Description: Surface Plasmon Resonance (SPR) binding. The note with it: FGFR2b alpha IIIb antigen. An excerpt: FIGS. 17A-17C provide a schematic and tabular data related to assessments made to compare the avidity of biparatopic antibodies to that of their parental (bivalent monospecific) antibodies.
FGFR2b alpha IIIb, sequence (P21802 22-378 isoform P21802-3): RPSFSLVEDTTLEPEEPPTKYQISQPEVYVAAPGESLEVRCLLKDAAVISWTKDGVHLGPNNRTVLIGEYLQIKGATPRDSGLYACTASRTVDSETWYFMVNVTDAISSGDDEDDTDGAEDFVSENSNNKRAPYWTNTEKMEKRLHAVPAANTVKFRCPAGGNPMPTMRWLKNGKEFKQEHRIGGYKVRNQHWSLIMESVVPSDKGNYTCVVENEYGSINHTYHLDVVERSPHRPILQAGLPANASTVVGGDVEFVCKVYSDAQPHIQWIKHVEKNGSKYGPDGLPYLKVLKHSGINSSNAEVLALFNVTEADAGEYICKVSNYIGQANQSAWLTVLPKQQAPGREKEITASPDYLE
Surface Plasmon Resonance (SPR) as known in the art was used to determine the binding affinities of biparatopic antibodies. The SPR-based binding method involves immobilization of a ligand (antibody) on the surface of a sensor chip. The binding partner of interest or an analyte (FGFR2 ECD) flow through the flow channel. Different concentrations of an analyte flow over the ligand, and the interactions of ligand-analyte can be characterized. The SPR signal originates from changes in the refractive index of the […] at the surface of the sensor chip. The increase in mass associated with a binding event causes a proportional increase in the refractive index, which is observed as a change in response-resonance signal. In brief, for the experiments using the antibodies described herein, the SPR assay was carried out by immobilizing antibodies (used as […]) at a concentration ranging from 1-1000 nM and flow-through FGFR2b alpha IIIb antigen (used as […]). The antibody kinetic data for the interaction with FGFR2b alpha IIb antigen were fitted to the 2-state and 1-1 binding models using Biocore software. The mean and standard deviation KD values are derived from at least three independent runs.
Using SPR, the kinetics of 6 monospecific and 13 biparatopic antibodies for binding to a single antigen, FGFR2b alpha IIb, was measured so as to compare avidity of the biparatopic antibodies to their parental antibodies. Without wishing to be bound by theory, it was expected that the biparatopic antibodies would bind to the FGFR2 antigen more tightly than their parental antibodies and that the tighter binding biparatopic antibodies among the antibodies that were assessed would be more efficient in blocking FGFR2 dimerization (FIG. 17A), thereby leading to inhibition or blocking of constitutive FGFR2 signaling and/or oncogenic transformation. […]

B1: FGFR_GA/GE_FL (bispecific antibody, part only; not given: Constant regions with duobody mutation, part only)
heavy chain, GA arm, part: QVQLVQSGAEVKKPGSSVKVSCKASGYIFTTYNVHWVRQAPGQGLEWIGSIYPDNGDTSYNQNFKGRATITADKSTSTAYMELSSLRSEDTAVYYCARGDFAYWGQGTLVTVSS
light chain, GA arm: DIQMTQSPSSLSASVGDRVTITCKASQGVSNDYAWYQQKPGKAPKLLIYSASYRYTGVPSRFSGSGSGTDFTFTISSLQPEDIATYYCQQHSTTPYTFGQGTKLEIK
heavy chain, GE arm, part: EVQLVESGGGLVQPGGSLRLSCAASGFPFTSTGISWVRQAPGKGLEWVGRTHLGDGSTNYADSVKGRFTISADTSKNTAYLQMNSLRAEDTAVYYCARTYGIYDTYDMYTEYVMDYWGQGTLVTVSS
light chain, GE arm: DIQMTQSPSSLSASVGDRVTITCRASQDVDTSLAWYKQKPGKAPKLLIYSASFLYSGVPSRFSGSGSGTDFTLTISSLQPEDFATYYCQQSTGHPQTFGQGTKVEIK
Take B1: the Kd in [1] and in test [2] was 0.87 nM each time. The molecule also displayed a Binding Stoichiometry in test [2] of 1.2.

B2: Biparatopic antibody GE/N12 (bispecific antibody, V domains shown)
VH 1: EVQLVESGGGLVQPGGSLRLSCAASGFPFTSTGISWVRQAPGKGLEWVGRTHLGDGSTNYADSVKGRFTISADTSKNTAYLQMNSLRAEDTAVYYCARTYGIYDTYDMYTEYVMDYWGQGTLVTVSS
VL 1: DIQMTQSPSSLSASVGDRVTITCRASQDVDTSLAWYKQKPGKAPKLLIYSASFLYSGVPSRFSGSGSGTDFTLTISSLQPEDFATYYCQQSTGHPQTFGQGTKVEIK
VH 2: QVQLVQSGAEVKKPGESLKISCKGSGYSFTNYYIHWVRQMPGKGLEWMGAIYPDNSDTTYSPSFQGQVTISADKSISTAYLQWSSLKASDTAMYYCARGADIWGQGTLVTVSS
VL 2: DIQMTQSPSSLSASVGDRVTITCRASQDIDPYLSNWYQQKPGKAPKLLIYDASNLQSGVPSRFSGSGSGTDFTLTISSLQPEDFATYYCQQTTSHPYTFGQGTKVEIK
Take B2: the “inhibition of growth of NIH3T3 cells overexpressing FGFR2-BICC1 compared to parental antibodies” value (shortened to “inhibition … compared to parental antibodies”) in test [3] is “more efficient and potent; also recorded: more effective and potent”. In [1], this molecule registered a Kd of 0.42 nM. Further, in test [2], the Binding Stoichiometry worked out at 1.3 and the Kd is 0.42 nM.

B3: 10164 (antibody, V domains shown)
VH: QVQLVESGGGLVKPGGSLRLSCAASGFTFSSYALSWVRQAPGKGLEWVGRIRSKIDGGTTDYAAPVKGRFTISRDDSKNTLYLQMNSLKTEDTAVYYCARDRSPSDSSAFAIWGQGTLVTVSS
VL: DIELTQPPSVSVSPGQTASITCSGDNLGSQYVDWYQQKPGQAPVLVIYDDNDRPSGIPERFSGSNSGNTATLTISGTQAEDEADYYCQSWDSLSVVFGGGTKLTVLG
notes: the duobody scheme implies IgG1 with K409R or F405L; also called Antibody C; N10164
B3: the EC50 (read off the curve) in [4] and in test [8] was 0.02 µg/mL in each case. The Kd in [5] turned out to be 1.7 nM; in test [6], 0.13 nM; in test [7], 0.13 nM. For the same molecule, the Binding Stoichiometry in [2] was 1.9.

B4: GE/N10: biparatopic antibody combining parental antibodies GE (Antibody D) and N10 (Antibody C) (antibody, V domains shown)
VH 1: EVQLVESGGGLVQPGGSLRLSCAASGFPFTSTGISWVRQAPGKGLEWVGRTHLGDGSTNYADSVKGRFTISADTSKNTAYLQMNSLRAEDTAVYYCARTYGIYDTYDMYTEYVMDYWGQGTLVTVSS
VL 1: DIQMTQSPSSLSASVGDRVTITCRASQDVDTSLAWYKQKPGKAPKLLIYSASFLYSGVPSRFSGSGSGTDFTLTISSLQPEDFATYYCQQSTGHPQTFGQGTKVEIK
VH 2: QVQLVESGGGLVKPGGSLRLSCAASGFTFSSYALSWVRQAPGKGLEWVGRIRSKIDGGTTDYAAPVKGRFTISRDDSKNTLYLQMNSLKTEDTAVYYCARDRSPSDSSAFAIWGQGTLVTVSS
VL 2: DIELTQPPSVSVSPGQTASITCSGDNLGSQYVDWYQQKPGQAPVLVIYDDNDRPSGIPERFSGSNSGNTATLTISGTQAEDEADYYCQSWDSLSVVFGGGTKLTVLG
Take B4: in test [3], the “inhibition … compared to parental antibodies” value is “more efficient and potent; also recorded: more effective and potent”.

B5: M048-D01 (antibody, V domains shown)
VH: EVQLLESGGGLVQPGGSLRLSCAASGFTFSSYAMSWVRQAPGKGLEWVSAISGSGTSTYYADSVKGRFTISRDNSKNTLYLQMNSLRAEDTAVYYCARVRYNWNHGDWFDPWGQGTLVTVSS
VL: QSVLTQPPSASGTPGQRVTISCSGSSSNIGNNYVSWYQQLPGTAPKLLIYENYNRPAGVPDRFSGSKSGTSASLAISGLRSEDEADYYCSSWDDSLNYWVFGGGTKLTVLG
notes: Parental bivalent monospecific antibody; also called Antibody A; Bayer
Regarding B5, the EC50 (read off the curve) in [4] amounted to 4 µg/mL; in [8], 0.1 µg/mL. Moreover, the equilibrium dissociation constant (Kd) in test [5] is 16 nM; in test [6], 30.7 nM; in [7], 30.7 nM; with 15AA-Nterm FGFR2, 105 nM; with FGFR2b alpha IIIb, 16 nM. For the same molecule, the “agonist activity in the absence of FGF ligands” value in [9] is “agonist activity”. In addition, in test [2], the Binding Stoichiometry is 1.7.

B6: Biparatopic antibody B/GE (bispecific antibody, V domains shown)
VH 1: EVQLLESGGGLVQPGGSLRLSCAASGFTFSSYAMSWVRQAPGKGLEWVSAISGSGTSTYYADSVKGRFTISRDNSKNTLYLQMNSLRAEDTAVYYCARVRYNWNHGDWFDPWGQGTLVTVSS
VL 1: QSVLTQPPSASGTPGQRVTISCSGSSSNIGNNYVSWYQQLPGTAPKLLIYENYNRPAGVPDRFSGSKSGTSASLAISGLRSEDEADYYCSSWDDSLNYWVFGGGTKLTVLG
VH 2: EVQLVESGGGLVQPGGSLRLSCAASGFPFTSTGISWVRQAPGKGLEWVGRTHLGDGSTNYADSVKGRFTISADTSKNTAYLQMNSLRAEDTAVYYCARTYGIYDTYDMYTEYVMDYWGQGTLVTVSS
VL 2: DIQMTQSPSSLSASVGDRVTITCRASQDVDTSLAWYKQKPGKAPKLLIYSASFLYSGVPSRFSGSGSGTDFTLTISSLQPEDFATYYCQQSTGHPQTFGQGTKVEIK
For the molecule B6, the “inhibition … compared to parental antibodies” value in test [3] was “more efficient and potent; also recorded: more effective and potent”. Also, in test [1], the Kd amounted to 0.37 nM. Moreover, in test [2], the Binding Stoichiometry was found to be 1.3 and the Kd worked out at 0.37 nM.

For orientation: Kd means the concentration at which binding is half-saturated. Lower therefore signals a tighter complex. What is called EC50 (read off the curve) is the concentration needed to bring the measured effect to its halfway point. Lower therefore signals higher potency in that assay.
